Target: T1, endogenous AMPylated BiP of CHO-K1 cells (Cricetulus griseus (CHO-K1), UniProt G3I8R9, AMP (threonine 518 is the site the paper names for BiP modified by FICD))
T1 construct: ER chaperone BiP/Grp-78, endogenous in CHO-K1 cells; also called endogenous BiP-AMP; source: endogenous, CHO-K1 lysate (untreated or treated with CHX 4 h); also after methanol/chloroform precipitation (denatured)
Experiment: western blot; 20 μg total cell lysate (HEK293, CHO-K1; untreated, TG 2 h or CHX 4 h; in Figure 4A HEK293 lysate spiked with a titration of recombinant BiP-AMP) on the blot, probed with 17G6 in the presence of MnCl2
Conditions: one partner purified

T1 sequence (G3I8R9 19-654): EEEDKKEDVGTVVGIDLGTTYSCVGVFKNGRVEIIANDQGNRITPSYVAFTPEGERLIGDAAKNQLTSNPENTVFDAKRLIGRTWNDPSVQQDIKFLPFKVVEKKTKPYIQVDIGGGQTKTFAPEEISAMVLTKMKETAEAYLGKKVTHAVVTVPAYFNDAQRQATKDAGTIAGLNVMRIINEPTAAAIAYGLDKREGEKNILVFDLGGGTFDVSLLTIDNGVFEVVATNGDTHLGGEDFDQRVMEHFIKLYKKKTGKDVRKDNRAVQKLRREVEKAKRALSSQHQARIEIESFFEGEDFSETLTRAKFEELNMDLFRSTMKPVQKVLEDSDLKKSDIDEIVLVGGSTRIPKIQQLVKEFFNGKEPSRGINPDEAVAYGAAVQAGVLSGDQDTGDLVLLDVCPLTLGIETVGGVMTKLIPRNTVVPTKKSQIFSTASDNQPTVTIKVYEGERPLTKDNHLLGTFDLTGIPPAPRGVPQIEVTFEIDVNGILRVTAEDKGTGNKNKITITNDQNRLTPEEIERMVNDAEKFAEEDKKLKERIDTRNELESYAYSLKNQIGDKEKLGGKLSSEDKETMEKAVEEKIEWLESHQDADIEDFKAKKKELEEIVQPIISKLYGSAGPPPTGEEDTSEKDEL

B1: monoclonal anti-AMP antibody 17G6 (antibody, V domains shown)
VH: EVQLQQSGPELVKPGASVKISCKASGYTFTDYYLNWVKQSHGKSLEWIGDIHPNKGINKYNQKFKGKATLTVDKSSSTAYMELRSLTSEDSAVYYCARYYGKRYFDVWGTGTMVTVSS
VL: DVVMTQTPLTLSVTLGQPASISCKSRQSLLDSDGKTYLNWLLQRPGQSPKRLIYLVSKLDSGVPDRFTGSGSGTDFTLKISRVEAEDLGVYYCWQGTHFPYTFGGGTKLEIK
notes: Recognises the AMP moiety on modified side chains; no preference for Thr or Tyr; source: mouse hybridoma (C57BL/6, BSA-hapten immunogen); roller bottle cell culture, purified from the supernatant (Protein A); clone supernatant in the selection ELISA
B1: binds.
